The values that follow come from the supplement of paper PMC12042874.

± gives the uncertainty stated by the source.

A short description of the data set: amyloid nucleation score (Sup35N fusion, yeast selection) (log enrichment); library NNK2; higher = more nucleation; inactive = no reads after selection. A digest of the protocol:
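The nucleation score is the log enrichment of output over input reads, calculated with DiMSum and centred on the mode score of non-aggregating sequences. Sequences with under 100 input reads were excluded. Reads came from Illumina sequencing of plasmid inserts from psi-negative yeast expressing Sup35N fused to peptides of 20 random codons, induced 24 hours with 100 μM copper sulfate and grown 7 days at 30°C without adenine and uracil.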
VEAIWHWVCYWSGMWSLGPG: the amyloid nucleation score was found to be 3.69 ± 0.057.

Substance STTLIEFSLYIRYYTND displayed an amyloid nucleation score of 4.64 ± 0.084.

In turn, IDFVVFFT had an amyloid nucleation score of 1.09 ± 0.27.

VQISWRFVPWI displayed an amyloid nucleation score of 1.79 ± 0.12.

In the case of FILRGDNLC, the amyloid nucleation score is -1.01 ± 1.

With SMKNK, the amyloid nucleation score came to 0.185 ± 0.4.

Turning to SSGFQNSSTNGTDAQS, the amyloid nucleation score was 0.101 ± 0.76.

In turn, FGTRHYLYSTSHHAHLGVDM showed an amyloid nucleation score of 1.83 ± 0.21.

As for RNAKMMTSSLVYNWFVFAER, the amyloid nucleation score came to 5.353 ± 0.045.

For the substance DIDKGSTEGDVMEGKLVNNV, the amyloid nucleation score was determined as 0.171 ± 0.2.

Consider YWWCRPILILCSNLDDVWSL, for which the amyloid nucleation score amounted to 7.6 ± 0.079.

PVCGVIALDSVTLCSSGMLL came in with an amyloid nucleation score of 0.334 ± 0.39.

Turning to DRESRFLYVYHSRY, the amyloid nucleation score entry was “inactive”.

In turn, KSISVSLLVEGAVVSLSAYI came in with an amyloid nucleation score of 4.21 ± 0.11.

PDGAWARLSKSGAEAYLSNF: the amyloid nucleation score was -0.299 ± 1.1.

YATKFN: the amyloid nucleation score stood at 0.058 ± 0.79.

For the substance GVDKKVSSTECIETVSCFIT, the amyloid nucleation score entry is “inactive”.

In turn, RVRKNCRFWSNCSCIVMVGR came in with an amyloid nucleation score of 5.07 ± 0.059.

In the case of LVCGHRPNVAAGTQGDCGRW, the amyloid nucleation score turned out to be 1.04 ± 0.32.

As for TGRLPLFLQGLDEYPASNPE, the amyloid nucleation score is -0.288 ± 1.1.

The substance VNEIWYDLDYEKVGFV had an amyloid nucleation score of 2.81 ± 0.074.

In turn, AVSFWSIF returned an amyloid nucleation score of 0.307 ± 0.64.

As to PMEWKPALPKTIVADARMRG, the amyloid nucleation score turned out to be 0.48 ± 0.3.

Turning to NSSRL, the amyloid nucleation score is -0.166 ± 1.1.

The substance GDQIWNYGSLAETVTASTWS returned an amyloid nucleation score of 0.509 ± 0.21.

As to DCFPLLLNRFRPEHYVRWHR, the amyloid nucleation score amounted to 0.887 ± 0.57.

ATRCGDFDQACHSGIT: the amyloid nucleation score turned out to be 0.749 ± 0.28.

In the case of DGSERIPCLSNYHMLRLTNS, the amyloid nucleation score was -0.001 ± 0.32.

CNFVRSYDCHQVKLSI had an amyloid nucleation score of -1.18 ± 1.1.

For LFKDMYSDLKHILNCGFQTT, the amyloid nucleation score is -0.711 ± 0.45.

HITRGVVPTAV came in with an amyloid nucleation score of 0.655 ± 0.74.

For the substance CLLVSEQRSRRHRRGALCIG, the amyloid nucleation score was found to be 0.872 ± 0.32.

Consider VLEFFLKSSF, for which the amyloid nucleation score amounted to 3.1 ± 0.14.

As to YRPITRMCSWDRNSLWWSRY, the amyloid nucleation score was -0.582 ± 0.54.

Regarding NGRIICNESMSLYKSEV, the amyloid nucleation score was determined as 0.842 ± 0.8.

As to IVSAKDILRLIYSVCGAGLG, the amyloid nucleation score is -0.264 ± 0.48.

Consider MRWGY, for which the amyloid nucleation score is -0.393 ± 1.

In turn, QSGLIHY had an amyloid nucleation score of -0.894 ± 0.78.

Regarding CSRIHIV, the amyloid nucleation score was -0.255 ± 1.1.

As for IRAGAWLEICRSAVVSGPSF, the amyloid nucleation score was -0.073 ± 0.33.

Substance SSSFFYTHVNHHLVLYDGKA had an amyloid nucleation score of -0.712 ± 1.1.

Turning to TSGRLR, the amyloid nucleation score turned out to be 1.67 ± 0.38.

LTWICEFGRSFFSWICVMIG came in with an amyloid nucleation score of 0.856 ± 0.14.

With TYMCQYDSLLTKTMINNRRG, the amyloid nucleation score was -0.611 ± 0.61.

Turning to RINIFLRITFHNLLQLNRSG, the amyloid nucleation score is 6.04 ± 0.081.

SLADS displayed an amyloid nucleation score of -0.802 ± 0.63.

In the case of GTMCFFMCTDYLYGSQTRLG, the amyloid nucleation score is -0.054 ± 1.1.

In turn, DGNFHNFLLCNNEMFREMDC registered an amyloid nucleation score of 2.63 ± 0.13.

GTDTTIDLNSYGHYYSLCVR: the amyloid nucleation score is 0.334 ± 0.65.

CPTFKIKRDMSLTHRLFNIY yielded an amyloid nucleation score of -1.64 ± 0.54.

LMASCHKQRTCRWHPRDRRY: the amyloid nucleation score came to 0.298 ± 0.46.

SNCSKCVKVYTSPCLWSLCG: the amyloid nucleation score is 3.46 ± 0.083.

Substance ANGSKGLVLTLNGDSKCVEC returned an amyloid nucleation score of 0.188 ± 0.25.

Take TYCHYVADFLPLFRFRISGG: the amyloid nucleation score worked out at 3.1 ± 0.065.

In turn, VFSYYMSRFLGATCMYKAAG returned an amyloid nucleation score of 5.1 ± 0.072.

Consider NLFYLARSMLINLQMYKTER, for which the amyloid nucleation score came to 4.46 ± 0.08.

With GNFDWAFHYGVFVHLCHKMG, the amyloid nucleation score entry is “inactive”.

In turn, DRTDVCWSSGHDHLDLCWMS registered an amyloid nucleation score of 0.273 ± 0.25.

As to GCYISLHMCLE, the amyloid nucleation score was found to be 3.84 ± 0.049.

As for FSWLSPMWYMLNDRKLYGNP, the amyloid nucleation score came out at 0.779 ± 0.42.

In turn, IFQRWHIS came in with an amyloid nucleation score of -2.67 ± 1.1.

In turn, IVGSDGGNIFTRLGCSAYRE came in with an amyloid nucleation score of -1.14 ± 0.35.

Substance GIMSNLGQSPRVRSHSRRQQ had an amyloid nucleation score of 0.747 ± 0.51.

GPSDLIFLPGLMAPRS gave an amyloid nucleation score of -0.373 ± 1.1.

Substance NRLSELGPCFHLFTSV gave an amyloid nucleation score of 0.089 ± 1.1.

On to GLSNLR, for which the amyloid nucleation score is -0.114 ± 1.

As to SVNMFKFRTDSSFCDLTLCH, the amyloid nucleation score is 0.423 ± 0.8.

Substance CTSCERSLAKRLQGWHIF registered an amyloid nucleation score of -1.09 ± 0.63.

ESSLDCMRDANNKAAWVEVV displayed an amyloid nucleation score of 1.05 ± 0.23.

As for THVNFW, the amyloid nucleation score entry was “inactive”.

Take CTMYLALRGVW: the amyloid nucleation score turned out to be 4.56 ± 0.056.

RSMYFGVQSLMYRSRLPKGS: the amyloid nucleation score was 4.01 ± 0.067.

The substance VVTRNRISRAGGLRS came in with an amyloid nucleation score of 0.616 ± 0.39.

Turning to HTEFGRVGNICLGMRCEVDW, the amyloid nucleation score turned out to be 0.792 ± 0.4.

Substance CKFWYLARWWIFLWSPRYK showed an amyloid nucleation score of -0.153 ± 1.1.

In the case of MLVMTMLWKMFSVAG, the amyloid nucleation score was determined as 0.432 ± 0.26.

RLFYGCITGIVVSSILGVCM yielded an amyloid nucleation score of 2.47 ± 0.21.

CLSNL: the amyloid nucleation score is -0.864 ± 0.48.

LVVLD registered an amyloid nucleation score of -0.262 ± 0.79.

In the case of CRASG, the amyloid nucleation score was determined as 0.409 ± 0.25.

WRNCYVYRTVLR came in with an amyloid nucleation score of 2.36 ± 0.07.

On to KRMSPWAVFGC, for which the amyloid nucleation score turned out to be 0.872 ± 0.47.

Substance SWGLPKVVIGGLQMRLEVGA came in with an amyloid nucleation score of 0.754 ± 0.39.

Substance LNTSFLMV displayed an amyloid nucleation score of -1.05 ± 0.49.

As for IKTYNGGSWGALSCIALRLI, the amyloid nucleation score is -1.39 ± 0.78.

For the substance IVMSCSMNPIEAYEVLCEFF, the amyloid nucleation score worked out at 0.382 ± 0.8.

With HVGLKSLHTMASWFMFDHNI, the amyloid nucleation score result is “inactive”.

As for NKRMRVRVEGRLINV, the amyloid nucleation score was 0.089 ± 0.42.

Substance FYSLLCTFPSLLTDLLLVHR displayed an amyloid nucleation score of -0.66 ± 0.26.

NLILWKTYCAAFCVGFINCT: the amyloid nucleation score was 5.36 ± 0.069.

As for PCKNIMVYNSLTDAWPCLYM, the amyloid nucleation score amounted to 0.093 ± 0.8.

In turn, FSFSEHRL registered an amyloid nucleation score of 0.045 ± 0.79.

DQSFLF yielded an amyloid nucleation score of -0.039 ± 0.39.

Turning to FQIRT, the amyloid nucleation score result was “inactive”.

LQVLSFSLWFMVRCMKLLPT: the amyloid nucleation score was -0.286 ± 0.65.

FVRHTHFG returned an amyloid nucleation score of -1.21 ± 1.1.

As to LLNFGVLGSDLSINKCNFSS, the amyloid nucleation score came to 1.89 ± 0.18.

YWVYAGIGVRMCNRVYNNLR had an amyloid nucleation score of 0.336 ± 0.3.

On to VASYAIGSFYADVACVEPRY, for which the amyloid nucleation score worked out at 0.835 ± 0.43.

With AYEGFISYLIYLSIRNSSPC, the amyloid nucleation score result was “inactive”.

As for NVPFCIVV, the amyloid nucleation score is 0.213 ± 0.57.

The substance GTDSL came in with an amyloid nucleation score of -0.226 ± 1.1.

In the case of MDLCINNVWWEAKTSSLGLL, the amyloid nucleation score result was “inactive”.

SLFYPLFLMLGVAYEGSFSW had an amyloid nucleation score of -1.1 ± 0.61.

Take HVNYWGRLCMKKRCNVDVNH: the amyloid nucleation score stood at 5.634 ± 0.043.

As for VCIMSRYKLQLLKNSNGITH, the amyloid nucleation score was found to be 2.53 ± 0.16.

Take ALYRL: the amyloid nucleation score turned out to be 0.233 ± 0.62.

On to RYTSVYSGRSENG, for which the amyloid nucleation score entry is “inactive”.

ALFRPEYRFM returned an amyloid nucleation score of 2.64 ± 0.13.

The substance DCRIVREHLPCPSFFRSFSR showed an amyloid nucleation score of 0.164 ± 1.1.

Regarding SSGTCTSHSLVLIHMGLRYV, the amyloid nucleation score was -0.54 ± 0.54.

QYCARAR had an amyloid nucleation score of 1.87 ± 0.4.

The substance SPWVNYYPSRVYRNVNACLF registered an amyloid nucleation score of -0.339 ± 0.35.

RMRCTIMLMTGKRTCYLMRE registered an amyloid nucleation score of -0.216 ± 0.41.

In turn, FRWGFVSPDRSIGDVFLQLC registered an amyloid nucleation score of -0.137 ± 1.1.

Regarding CVNSLALGRVSIVGISSGWW, the amyloid nucleation score is 0.284 ± 0.51.

The substance SFAIIS showed an amyloid nucleation score of 0.077 ± 0.65.

ARECNY showed an amyloid nucleation score of 3.78 ± 0.063.

Substance VNFYSALSSDNTRMYWLLTV had an amyloid nucleation score of -0.898 ± 1.1.

FGCPIVPVISIGFPLYGVYY showed an amyloid nucleation score of 1.1 ± 0.3.

As for YGEELE, the amyloid nucleation score entry was “inactive”.

Take LYHEDRSVISRLVSSRLKCK: the amyloid nucleation score came to 0.389 ± 0.38.

RGFVLETLWSMTIVVQKFNL: the amyloid nucleation score entry is “inactive”.

The substance CVVVRSCI displayed an amyloid nucleation score of -0.342 ± 1.1.

On to SWRWKATAT, for which the amyloid nucleation score was -1.09 ± 0.45.

In turn, YLVNNAEMVNMELMISVSGA returned an amyloid nucleation score of -0.337 ± 0.38.

For SDTGGSVYMKTVGRTHLTYD, the amyloid nucleation score is -0.252 ± 0.25.

With LYYMHNE, the amyloid nucleation score is -0.652 ± 0.64.

As for FDNQFTLVVRGIVGTVYWCV, the amyloid nucleation score was 7.233 ± 0.065.

TCVAACTSRRGGISRLLPGN yielded an amyloid nucleation score of -0.295 ± 0.38.

With VIEMRHDRFFTVYSVEITAG, the amyloid nucleation score is 0.623 ± 0.52.

Turning to DKYSWRKNGCGGWCVTTVVG, the amyloid nucleation score amounted to 0.573 ± 0.3.

Consider LLTYYFVLTLVPSMFTSFVF, for which the amyloid nucleation score was determined as 1.49 ± 0.15.

As for EHTFLFA, the amyloid nucleation score is -0.297 ± 1.1.

The substance GEIAPGWEQLWDNEWGSDWA displayed an amyloid nucleation score of -0.051 ± 0.39.

ILVWANSHVLDVDHRDRGRR registered an amyloid nucleation score of 1.9 ± 0.13.

As for HLNWHLFILGLFGSATGEDI, the amyloid nucleation score is -1.48 ± 1.1.

FSHYLSRRGRPYHANCKEAL yielded an amyloid nucleation score of -0.922 ± 0.39.

Substance TVYYNQLSD registered an amyloid nucleation score of -0.982 ± 0.76.

In turn, IIMFRVYVM gave an amyloid nucleation score of -0.964 ± 0.76.

As to KCDLMRWSHFQ, the amyloid nucleation score was 1.24 ± 0.48.

The substance TSLKYSVENTVASPVDRTWL registered an amyloid nucleation score of -0.055 ± 1.1.
